Consider eight molecules from US20220056137A1 (GIGAGEN, published 2022).

The target in experiment [1] is T1, PD-L1 expressed on CHO cells (human, UniProt Q9NZQ7 19-290). Kind of experiment: cell-based or functional assay.
Experiment [2] addresses T2, human PD-L1 protein (soluble) (human, UniProt Q9NZQ7 19-239).
T2 construct: also called PD-L1 (R&D Systems); His-tagged PD-L1 protein
The experiment in a line: SPR, mAb captured on anti-human IgG Fc, PD-L1 as analyte.
Procedure: (§1) The surface was then deactivated with 1 M ethanolamine pH 8.5 (Carterra Inc.). Running buffer used for the lawn immobilization was HBS-EPC (10 mM HEPES, 150 mM NaCl, 3 mM EDTA, 0.05% Tween 20, pH 7.4; Teknova).
(§2) The sensor chip was then transferred to a continuous flow microspotter (CFM; Carterra Inc.) for array capturing. The mAb supernatants were diluted 50-fold (3-10 mg/mL final concentration) into HBS-EPC with 1 mg/mL BSA. The samples were each captured twice with 15-minute and 4-minute capture steps on the first and second prints, respectively, to create multiple densities, using a 65 mL/min flow rate. The running buffer in the CFM was also HBS-EPC.
(§3) Next, the sensor chip was loaded onto an SPR reader (MX-96 system; Ibis Technologies) for the kinetic analysis. […] PD-L1 injections were 5 minutes with a 15-minute dissociation at 8 mL/second in a non-regenerative kinetic series. An injection of the goat anti-Human IgG Fc capture antibody at 75 mg/mL was injected at the end of the series to verify the capture level of each mAb. Binding data was double referenced by subtracting an interspot surface and a blank injection and analyzed for ka (on-rate), kd (off-rate), and KD (affinity) using the Kinetic Interaction Tool software (Carterra Inc.).

Experiment [3] concerns the target T2, human PD-L1 protein (soluble). The description is as above. The source holds these as a separate data set.
Procedure: as §1, §2, §3
For another experiment, the target named is T3, cyno PD-L1 (cyno).
T3 construct: Soluble analyte in BLI
Kind of experiment: BLI (Octet), antibody on AHC biosensor, cyno PD-L1 as analyte.

The target of another experiment is T4, rhPD-L1-Fc (human, UniProt Q9NZQ7 19-239, limits assumed).
T4 construct: Recombinant human PD-L1-Fc coated on ELISA plates; not shown: Fc part
T4 sequence (Q9NZQ7 19-239 limits assumed): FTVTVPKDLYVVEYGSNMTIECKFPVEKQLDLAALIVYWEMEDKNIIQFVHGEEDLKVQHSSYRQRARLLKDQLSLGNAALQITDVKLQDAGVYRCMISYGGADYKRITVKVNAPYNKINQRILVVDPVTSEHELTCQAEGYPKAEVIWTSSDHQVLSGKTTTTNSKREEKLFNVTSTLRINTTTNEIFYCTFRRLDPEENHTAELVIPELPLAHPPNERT
The experiment in a line: competition ELISA: plate-bound rhPD-L1-Fc, antibody titrated, competitor rhCD80-His detected.

Experiment [4] has as its target T2, human PD-L1 protein (soluble). Kind of experiment: BLI (Octet), antibody on AHC biosensor, PD-L1 as analyte.
Procedure: (§4) For BLI, antibodies were loaded onto an Anti-Human IgG Fc (AHC) biosensor using the Octet Red96 system (ForteBio). Loaded biosensors were dipped into antigen dilutions beginning at 300 nM, with 6 serial dilutions at 1:3. Kinetic analysis was performed using a 1:1 binding model and global fitting.
The target is the same in experiment [5]. The experiment is described as above. This is another data set of the same source.
Procedure: as §4
The target in experiment [6] is T1, PD-L1 expressed on CHO cells. The experiment in a line: flow cytometry on PD-L1 expressing Flp-In CHO cells. On the technique in general: Flow cytometry measures light scatter and fluorescence of single cells or particles in a stream.
Procedure: For cell surface binding studies, PD-L1 expressing Flp-In CHO (Thermo Fisher Scientific) cells were generated and mixed at a 50:50 ratio. One million cells were stained with 1 μg of the disclosed anti-PD-L1 recombinant antibodies in 200 μl of MACS Buffer (DPBS with 0.5% bovine serum albumin and 2 mM EDTA) for 30 minutes at 4 C. Cells were then co-stained with anti-human irrelevant target-APC and anti-human IgG Fc-PE antibodies for 30 minutes at 4 C. An anti-human PD-L1 antibody was used as a control for these mixing experiments and cell viability was assessed with DAPI. Flow cytometry analysis was conducted on a BD Influx at the Stanford Shared FACS Facility and data was analyzed using FlowJo.

Substitutions are numbered along the chain they refer to.

T2 sequence (Q9NZQ7 19-239 limits assumed): as above
T1 sequence (Q9NZQ7 19-290 limits assumed): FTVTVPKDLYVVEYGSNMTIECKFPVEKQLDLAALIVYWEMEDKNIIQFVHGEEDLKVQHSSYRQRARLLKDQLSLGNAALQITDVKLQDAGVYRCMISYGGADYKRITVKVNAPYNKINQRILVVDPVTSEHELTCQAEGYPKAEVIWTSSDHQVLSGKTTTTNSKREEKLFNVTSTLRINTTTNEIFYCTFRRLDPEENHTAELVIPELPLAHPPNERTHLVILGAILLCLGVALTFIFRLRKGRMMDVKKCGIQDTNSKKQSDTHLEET
Procedure for cyno PD-L1: as §4
Procedure for rhPD-L1-Fc: Plates were coated with rhPD-L1-Fc and then blocked with 1× PBS with 2% w/v BSA. After blocking a dilution series of the indicated antibody was added to the plate.

B1: antibody A7 (antibody, V domains shown)
VH: QVQLQESGPGLVKPSETLSLTCTVSGGSISSYYWSWIRQPPGKGLEWIGYIFYSGSTNYNPSLKSRVTISVDTSKNQFSLKLSSVTAADTAVYFCARDNWHDGGVDYWGQGTLVTVSS
VL: EIVMTQSPTTLSLSPGERATLSCRASQSVSSSYLSWYQQKPGQAPRLLIYGASTRATGIPARFSGSGSGTDFTLTISSLQPEDFAVYYCQQDYNLRTFGQGTKVEIK
notes: Tested as full-length mAb made in CHO cells; also called L7H7
With B1, the “Promega assay antagonist (EC50, ug/mL)” value in experiment [1] is 0.151 µg/mL. Also, in experiment [2], the affinity, expressed as Kd, was 16.7 nM; the koff (commonly a measure of how fast the partners let go of each other) turned out to be 0.0095 s⁻¹; the kon (in general, the second-order rate constant of association) was 570000 M⁻¹ s⁻¹. Besides, binding in experiment [3] was characterised by a dissociation constant (Kd) of 17 nM. For the same molecule, in the experiment with cyno PD-L1, the Kd (commonly the constant that tells how readily two partners part at equilibrium) came out at 23 nM. For the same molecule, a half-maximal response with rhPD-L1-Fc (EC50) required 1.88 µg/mL.

B2: antibody A25 (antibody, V domains shown)
VH: QVQLVQSGAEVKKPGASVKVSCKASGFTFTSYDINWVRQATGQGLEWMGWMHPKSGITGYAQKFQGRVTMTRNTSISTAYMELSNLSSEDTAVYFCARYNYVSGSYDYWGQGTLVTVSS
VL: EIVMTQSPATLSLSPGERATLSCWASQSVSSSYLSWYQQKPGQAPRLLIYGASTRATGIPARFSGSGSGTDFTLTISSLQPEDFAVYYCQQDYYLPYTFGQGTKLEIK
notes: Derived from a mutagenesis screen of A1; Tested as full-length antibody; also called L25H25
On to B2, for which, in experiment [1], the “Promega assay antagonist (EC50, ug/mL)” value worked out at 0.063 µg/mL. Moreover, in experiment [4], the Kd was 2.44 nM, the koff was found to be 0.000809 s⁻¹ and the kon came out at 331000 M⁻¹ s⁻¹. Besides, the affinity in experiment [5], expressed as Kd, was 2.4 nM. In addition, the EC50 (in general, the concentration needed to bring the measured effect to its halfway point) with rhPD-L1-Fc came out at 0.26 µg/mL.

B3: antibody A5 (antibody, V domains shown)
VH: QVQLVESGGGVVQPGRSLRLSCAASGFAFSSYGMHWVRQAPGKGLEWVALIWFDGNNKFYADSVKGRFTISRDNSKNTLYLQMNSLRAEDTAVYYCARDTTAASFDYWGQGTLVTVSS
VL: B2 VL with W24R, S32T, Y50F, Y94N, Y97P, Q101P, L105V, E106D
notes: Tested as full-length mAb made in CHO cells; also called L5H5
B3: in experiment [1], the “Promega assay antagonist (EC50, ug/mL)” value is 0.0985 µg/mL. The Kd in experiment [2] was found to be 14.6 nM; in experiment [3], 15 nM; in the experiment with cyno PD-L1, 8.6 nM. In experiment [2], this molecule gave a koff of 0.0086 s⁻¹. In experiment [2], this molecule had a kon of 590000 M⁻¹ s⁻¹. Besides, the EC50 with rhPD-L1-Fc was 0.97 µg/mL.

B4: antibody A2 (antibody, V domains shown)
VH: EVQLVESGGGLVQPGGSLRLSCAASGFTFSRYDMSWVRQAPGKGLEWVSTISGSGGSTYYADSVKGRFTISRDNSKTTLYLQMISLRAEDTAVYYCAKAGFTMIVVAFDYWGQGTLVTVSS
VL: DIQMTQSPSSLSASVGDRVTITCRASQGISNYLAWFQQKPGKAPKSLIYAASSLQSGVPSKFSGSGSGTDFTLTISSLQPEDFATYYCQQYNSYPYTFGQGTKLEIK
notes: Tested as full-length mAb made in CHO cells; also called L2H2
Regarding B4, the “Promega assay antagonist (EC50, ug/mL)” value in experiment [1] came out at 0.042 µg/mL. In experiment [2], the Kd was found to be 3.45 nM, the koff is 0.0038 s⁻¹ and the kon stood at 1.1e+06 M⁻¹ s⁻¹. In experiment [3], this molecule showed a Kd of 3.5 nM. The molecule also had a Kd in the experiment with cyno PD-L1 of 5.2 nM. The EC50 with rhPD-L1-Fc worked out at 0.87 µg/mL.

B5: antibody A8 (antibody, V domains shown)
VH: QVQLVQSGAEVKKPGASVKVSCKASGYTFTSYGISWVRQAPGQGLEWMGWISAYNGSTNYAQKLQGRVTMTTDTSTSTAYMELRSLRSDDTAVFYCARDDRIAVADYYYYFGMDVWGQGTTVTVSS
VL: B4 VL with S30R, Y32D, A34G, F36Y, S46R, K61R, D70E, Q89L, Y91H
notes: Tested as full-length mAb made in CHO cells; also called L8H8
Regarding B5, in experiment [1], the “Promega assay antagonist (EC50, ug/mL)” value worked out at 0.621 µg/mL. In addition, the values for the Kd (in experiment [2]; in experiment [3]; with cyno PD-L1) were 22.8 nM, 22 nM and 18.9 nM, respectively. The koff in experiment [2] amounted to 0.013 s⁻¹. Besides, the kon in experiment [2] was 570000 M⁻¹ s⁻¹. The response with rhPD-L1-Fc was half-maximal at 0.46 µg/mL (EC50).

B6: antibody A22 (antibody, V domains shown)
VH: QVQLVQSGAEVKKPGASVKVSCKASGYTFTSYGISWVRQAPGQGLEWMGWISAYNGNTNYAQKLQGRVTMTTDTSTSTAYMELRSLRSDDTAVYYCARGFYYGSWYFDYWGQGTLVTVSS
VL: B4 VL with N31S, Y32W, F36Y, G41E, K61R, Y96P, F98V, Q100G, L104V
notes: Tested as full-length mAb made in CHO cells; also called L22H22
As for B6, the binding result in experiment [6] is given as “binds”. The same molecule came in with a Kd with cyno PD-L1 of 38.5 nM.

B7: antibody A3 (antibody, V domains shown)
VL: AIQMTQSPSSLSASVGDRVTITCRASQDIRNDLGWYQQQPGKAPKLLIYAASSLQSGVPSRFSGSGSGTDFTLTISSLQPEDFATYYCLQDYNYPPTFGQGTKVEIK
V domain: QVQLVESGGGVVQPGRSLRLSCAASGFTFSNYGMHWVRQAPGKGLEWVAVIWFDGNTKYYTDSVKGRFTISRDNSKNTLYLQMNSLRAEDTAVYYCARDTTMVPMDVWGQGTTATVSS
notes: Tested as full-length mAb made in CHO cells; also called L3H3
In the case of B7, in experiment [1], the “Promega assay antagonist (EC50, ug/mL)” value was determined as 0.12 µg/mL. In experiment [2], this molecule had a Kd of 5.14 nM, a koff of 0.0019 s⁻¹ and a kon of 370000 M⁻¹ s⁻¹. This molecule registered a Kd in experiment [3] of 5 nM. This molecule also showed a Kd with cyno PD-L1 of 8.3 nM. The molecule further displayed an EC50 in the experiment with rhPD-L1-Fc of 0.99 µg/mL.

B8: antibody A4 (antibody, V domains shown)
VH: B7 V domain with T100I, A114V
VL: B7 VL
notes: Tested as full-length mAb made in CHO cells; also called L4H4
Take B8: the “Promega assay antagonist (EC50, ug/mL)” value in experiment [1] was 0.198 µg/mL. The values for the Kd (in experiment [2]; in experiment [3]; with cyno PD-L1) were 6.25 nM, 6.4 nM and 11.3 nM, respectively. Also, the koff in experiment [2] came to 0.001 s⁻¹. The kon in experiment [2] was determined as 160000 M⁻¹ s⁻¹. Besides, in the experiment with rhPD-L1-Fc, the midpoint of the response, the EC50, lay at 1.25 µg/mL.
